Assay results from IntAct's records for PubMed 36931259.

B1: 14-3-3 protein sigma (Homo sapiens), P31947 (parent)
chain: MERASLIQKAKLAEQAERYEDMAAFMKGAVEKGEELSCEERNLLSVAYKNVVGGQRAAWRVLSSIEQKSNEEGSEEKGPEVREYREKVETELQGVCDTVLGLLDSHLIKEAGDAESRVFYLKMKGDYYRYLAEVATGDDKKRIIDSARSAYQEAMDISKKEMPPTNPIRLGLALNFSVFHYEIANSPEEAISLAKTTFDEAMADLHTLSEDSYKDSTLIMQLLRDNLTLWTADNAGEEGGEAPQEPQS
partner: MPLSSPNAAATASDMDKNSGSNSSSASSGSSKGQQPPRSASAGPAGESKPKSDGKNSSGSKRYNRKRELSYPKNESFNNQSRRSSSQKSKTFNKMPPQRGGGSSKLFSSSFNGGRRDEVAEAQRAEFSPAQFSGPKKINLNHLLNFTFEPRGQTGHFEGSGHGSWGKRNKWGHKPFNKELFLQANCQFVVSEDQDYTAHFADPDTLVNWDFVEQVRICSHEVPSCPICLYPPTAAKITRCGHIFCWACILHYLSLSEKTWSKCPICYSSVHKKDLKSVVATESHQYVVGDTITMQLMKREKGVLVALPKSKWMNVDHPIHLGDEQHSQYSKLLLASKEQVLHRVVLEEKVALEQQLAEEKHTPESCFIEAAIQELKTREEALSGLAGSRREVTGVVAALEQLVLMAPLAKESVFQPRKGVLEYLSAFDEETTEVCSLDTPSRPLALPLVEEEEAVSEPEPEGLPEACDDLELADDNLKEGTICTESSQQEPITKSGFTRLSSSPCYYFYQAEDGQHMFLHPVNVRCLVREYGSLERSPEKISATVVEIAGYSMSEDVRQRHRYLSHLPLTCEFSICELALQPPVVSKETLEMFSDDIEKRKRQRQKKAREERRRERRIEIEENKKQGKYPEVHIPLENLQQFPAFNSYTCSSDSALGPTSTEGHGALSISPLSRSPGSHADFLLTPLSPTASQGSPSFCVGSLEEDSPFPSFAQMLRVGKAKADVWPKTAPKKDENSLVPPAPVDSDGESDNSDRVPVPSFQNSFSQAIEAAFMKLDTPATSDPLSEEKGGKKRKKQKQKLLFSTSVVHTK
B2: 14-3-3 protein sigma (Homo sapiens), P31947 (parent)
chain: B1 chain
partner: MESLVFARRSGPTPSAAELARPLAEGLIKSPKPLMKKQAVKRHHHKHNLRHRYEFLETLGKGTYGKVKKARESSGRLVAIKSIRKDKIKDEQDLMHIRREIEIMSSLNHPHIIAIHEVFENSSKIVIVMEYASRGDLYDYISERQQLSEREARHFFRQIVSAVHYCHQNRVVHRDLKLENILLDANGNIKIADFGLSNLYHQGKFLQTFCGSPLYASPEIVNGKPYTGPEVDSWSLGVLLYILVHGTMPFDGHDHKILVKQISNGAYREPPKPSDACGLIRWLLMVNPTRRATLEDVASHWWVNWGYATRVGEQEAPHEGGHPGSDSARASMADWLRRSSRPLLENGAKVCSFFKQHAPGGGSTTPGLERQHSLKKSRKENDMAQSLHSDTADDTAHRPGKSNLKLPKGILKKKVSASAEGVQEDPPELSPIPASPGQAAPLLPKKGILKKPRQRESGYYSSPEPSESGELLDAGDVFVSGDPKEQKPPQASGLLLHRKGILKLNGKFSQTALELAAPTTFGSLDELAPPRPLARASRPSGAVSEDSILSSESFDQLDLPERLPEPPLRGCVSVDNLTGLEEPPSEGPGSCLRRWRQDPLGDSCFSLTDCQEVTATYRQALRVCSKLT
B3: 14-3-3 protein sigma (Homo sapiens), P31947 (parent)
chain: B1 chain
partner: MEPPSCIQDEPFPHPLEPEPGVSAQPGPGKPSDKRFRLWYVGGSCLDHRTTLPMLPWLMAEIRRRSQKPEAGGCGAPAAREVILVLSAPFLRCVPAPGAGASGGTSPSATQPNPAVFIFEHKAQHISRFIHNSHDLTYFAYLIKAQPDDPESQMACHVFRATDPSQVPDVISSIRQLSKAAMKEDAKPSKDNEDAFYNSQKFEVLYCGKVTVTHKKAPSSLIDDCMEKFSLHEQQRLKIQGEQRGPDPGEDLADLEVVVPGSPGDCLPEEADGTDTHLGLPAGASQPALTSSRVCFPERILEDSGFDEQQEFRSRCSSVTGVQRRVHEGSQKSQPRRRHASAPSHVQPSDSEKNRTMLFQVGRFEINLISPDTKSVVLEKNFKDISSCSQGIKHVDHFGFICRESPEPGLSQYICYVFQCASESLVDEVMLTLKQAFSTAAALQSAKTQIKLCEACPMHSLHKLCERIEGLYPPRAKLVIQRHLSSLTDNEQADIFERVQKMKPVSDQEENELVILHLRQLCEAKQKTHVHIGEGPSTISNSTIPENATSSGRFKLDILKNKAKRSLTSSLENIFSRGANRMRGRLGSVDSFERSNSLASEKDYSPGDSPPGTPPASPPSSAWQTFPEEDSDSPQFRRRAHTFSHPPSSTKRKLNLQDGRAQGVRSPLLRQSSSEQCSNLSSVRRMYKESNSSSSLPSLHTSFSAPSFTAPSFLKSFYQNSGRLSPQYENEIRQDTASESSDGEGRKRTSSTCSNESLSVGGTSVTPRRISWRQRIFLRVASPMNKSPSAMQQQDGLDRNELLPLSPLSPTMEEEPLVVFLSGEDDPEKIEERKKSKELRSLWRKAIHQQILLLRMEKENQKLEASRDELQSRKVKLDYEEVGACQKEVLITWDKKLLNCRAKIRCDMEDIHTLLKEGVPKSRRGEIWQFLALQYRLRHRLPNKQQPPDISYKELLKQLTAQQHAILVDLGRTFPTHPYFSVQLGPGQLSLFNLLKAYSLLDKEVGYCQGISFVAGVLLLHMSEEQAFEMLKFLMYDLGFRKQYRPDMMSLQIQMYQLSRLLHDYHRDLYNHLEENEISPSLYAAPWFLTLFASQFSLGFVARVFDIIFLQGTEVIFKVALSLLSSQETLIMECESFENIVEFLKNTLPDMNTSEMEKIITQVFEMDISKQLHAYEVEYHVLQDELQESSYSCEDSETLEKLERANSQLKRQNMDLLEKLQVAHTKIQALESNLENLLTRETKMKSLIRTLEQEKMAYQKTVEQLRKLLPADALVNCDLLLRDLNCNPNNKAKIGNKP
B4: 14-3-3 protein sigma (Homo sapiens), P31947 (parent)
chain: B1 chain
partner: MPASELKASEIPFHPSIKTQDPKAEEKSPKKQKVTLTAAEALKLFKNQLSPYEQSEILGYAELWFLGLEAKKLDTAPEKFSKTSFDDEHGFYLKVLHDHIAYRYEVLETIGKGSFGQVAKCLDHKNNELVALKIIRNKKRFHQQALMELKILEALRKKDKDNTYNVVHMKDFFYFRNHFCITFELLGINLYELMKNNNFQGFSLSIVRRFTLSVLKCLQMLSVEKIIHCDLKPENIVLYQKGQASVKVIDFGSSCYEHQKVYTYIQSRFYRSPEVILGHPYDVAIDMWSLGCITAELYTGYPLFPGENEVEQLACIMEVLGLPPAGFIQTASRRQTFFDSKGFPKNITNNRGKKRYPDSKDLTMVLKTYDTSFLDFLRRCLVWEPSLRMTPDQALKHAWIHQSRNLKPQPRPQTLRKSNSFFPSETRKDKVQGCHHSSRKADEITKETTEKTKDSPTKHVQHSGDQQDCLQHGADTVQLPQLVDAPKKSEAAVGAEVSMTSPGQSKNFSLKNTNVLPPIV
B5: 14-3-3 protein sigma (Homo sapiens), P31947 (parent)
chain: B1 chain
partner: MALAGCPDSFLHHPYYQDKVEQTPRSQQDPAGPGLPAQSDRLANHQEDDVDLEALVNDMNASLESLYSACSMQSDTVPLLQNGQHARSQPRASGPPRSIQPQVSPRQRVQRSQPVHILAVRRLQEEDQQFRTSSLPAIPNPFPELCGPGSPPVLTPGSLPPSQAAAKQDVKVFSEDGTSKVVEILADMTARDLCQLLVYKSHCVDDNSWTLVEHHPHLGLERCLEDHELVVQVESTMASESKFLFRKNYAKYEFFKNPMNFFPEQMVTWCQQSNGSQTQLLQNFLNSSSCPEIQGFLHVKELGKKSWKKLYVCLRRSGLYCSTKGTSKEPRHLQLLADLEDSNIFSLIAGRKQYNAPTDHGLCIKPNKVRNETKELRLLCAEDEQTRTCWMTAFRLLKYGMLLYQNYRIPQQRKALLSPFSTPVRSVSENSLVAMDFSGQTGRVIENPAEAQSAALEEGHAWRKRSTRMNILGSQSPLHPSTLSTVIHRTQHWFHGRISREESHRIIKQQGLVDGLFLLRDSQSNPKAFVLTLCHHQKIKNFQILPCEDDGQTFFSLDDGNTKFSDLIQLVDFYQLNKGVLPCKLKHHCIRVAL
B6: 14-3-3 protein sigma (Homo sapiens), P31947 (parent)
chain: B1 chain
partner: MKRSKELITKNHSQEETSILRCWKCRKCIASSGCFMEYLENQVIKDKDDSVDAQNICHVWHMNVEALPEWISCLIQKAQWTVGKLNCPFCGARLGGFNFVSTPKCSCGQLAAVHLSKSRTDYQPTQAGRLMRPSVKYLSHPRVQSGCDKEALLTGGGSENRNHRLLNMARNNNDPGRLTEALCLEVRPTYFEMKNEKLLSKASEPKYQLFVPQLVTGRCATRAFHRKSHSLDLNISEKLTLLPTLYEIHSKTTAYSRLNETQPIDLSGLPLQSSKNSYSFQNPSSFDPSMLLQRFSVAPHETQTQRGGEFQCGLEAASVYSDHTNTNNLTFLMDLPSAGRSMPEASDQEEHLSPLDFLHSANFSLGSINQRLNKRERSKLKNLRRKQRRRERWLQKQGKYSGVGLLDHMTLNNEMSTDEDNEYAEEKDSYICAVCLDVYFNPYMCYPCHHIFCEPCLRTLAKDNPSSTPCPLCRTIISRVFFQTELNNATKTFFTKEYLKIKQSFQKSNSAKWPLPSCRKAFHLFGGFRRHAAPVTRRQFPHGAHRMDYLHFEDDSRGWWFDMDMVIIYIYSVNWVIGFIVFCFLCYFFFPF

Variants of: B1
Conditions: with rnf10_human RNF10, Q8N5U6

Variant | effect of a mutation on the interaction
K49E;R56E;V178D | decreasing interaction strength

Variants of: B2
Conditions: with nuak2_human NUAK2, Q9H093

Variant | effect of a mutation on the interaction
K49E;R56E;V178D | decreasing interaction strength

Variants of: B3
Conditions: with tbcd4_human TBC1D4, O60343

Variant | effect of a mutation on the interaction
K49E;R56E;V178D | decreasing interaction strength

Variants of: B4
Conditions: with dyrk4_human DYRK4, Q9NR20

Variant | effect of a mutation on the interaction
K49E;R56E;V178D | decreasing interaction strength

Variants of: B5
Conditions: with grb10_human GRB10, Q13322

Variant | effect of a mutation on the interaction
K49E;R56E;V178D | decreasing interaction strength

Variants of: B6
Conditions: with rn180_human RNF180, Q86T96

Variant | effect of a mutation on the interaction
K49E;R56E;V178D | decreasing interaction strength
